Data published in article PMC2916698 (Journal of cellular physiology, 2010).

Key:
Test in all cases: two-hybrid
[1] = target: T1, Gal4-mouse RXRα ligand binding domain (LBD) (mouse, UniProt P28700 232-467)
T1 sequence (looked up): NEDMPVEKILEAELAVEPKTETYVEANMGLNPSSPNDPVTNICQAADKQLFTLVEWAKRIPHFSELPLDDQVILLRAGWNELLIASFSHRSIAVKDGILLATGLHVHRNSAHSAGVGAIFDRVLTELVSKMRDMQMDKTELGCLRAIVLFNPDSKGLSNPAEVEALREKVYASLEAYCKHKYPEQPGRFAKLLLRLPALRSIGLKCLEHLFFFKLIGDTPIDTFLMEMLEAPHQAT

[2] = target: Gal4-SRC-1 (Steroid Receptor Coactivator-1) (UniProt Q15788 1-1441)
[3] = target: T2, Gal4-RXRα AF-1 (first 135 amino acids of human RXRα) (human, UniProt P19793 1-135)
T2 sequence (looked up): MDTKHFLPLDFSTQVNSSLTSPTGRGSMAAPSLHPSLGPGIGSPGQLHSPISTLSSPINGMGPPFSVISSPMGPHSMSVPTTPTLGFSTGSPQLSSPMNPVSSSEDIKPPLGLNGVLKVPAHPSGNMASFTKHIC

Chain of Gal4-SRC-1 (Steroid Receptor Coactivator-1) (Q15788 whole entry, the tested form may be a part): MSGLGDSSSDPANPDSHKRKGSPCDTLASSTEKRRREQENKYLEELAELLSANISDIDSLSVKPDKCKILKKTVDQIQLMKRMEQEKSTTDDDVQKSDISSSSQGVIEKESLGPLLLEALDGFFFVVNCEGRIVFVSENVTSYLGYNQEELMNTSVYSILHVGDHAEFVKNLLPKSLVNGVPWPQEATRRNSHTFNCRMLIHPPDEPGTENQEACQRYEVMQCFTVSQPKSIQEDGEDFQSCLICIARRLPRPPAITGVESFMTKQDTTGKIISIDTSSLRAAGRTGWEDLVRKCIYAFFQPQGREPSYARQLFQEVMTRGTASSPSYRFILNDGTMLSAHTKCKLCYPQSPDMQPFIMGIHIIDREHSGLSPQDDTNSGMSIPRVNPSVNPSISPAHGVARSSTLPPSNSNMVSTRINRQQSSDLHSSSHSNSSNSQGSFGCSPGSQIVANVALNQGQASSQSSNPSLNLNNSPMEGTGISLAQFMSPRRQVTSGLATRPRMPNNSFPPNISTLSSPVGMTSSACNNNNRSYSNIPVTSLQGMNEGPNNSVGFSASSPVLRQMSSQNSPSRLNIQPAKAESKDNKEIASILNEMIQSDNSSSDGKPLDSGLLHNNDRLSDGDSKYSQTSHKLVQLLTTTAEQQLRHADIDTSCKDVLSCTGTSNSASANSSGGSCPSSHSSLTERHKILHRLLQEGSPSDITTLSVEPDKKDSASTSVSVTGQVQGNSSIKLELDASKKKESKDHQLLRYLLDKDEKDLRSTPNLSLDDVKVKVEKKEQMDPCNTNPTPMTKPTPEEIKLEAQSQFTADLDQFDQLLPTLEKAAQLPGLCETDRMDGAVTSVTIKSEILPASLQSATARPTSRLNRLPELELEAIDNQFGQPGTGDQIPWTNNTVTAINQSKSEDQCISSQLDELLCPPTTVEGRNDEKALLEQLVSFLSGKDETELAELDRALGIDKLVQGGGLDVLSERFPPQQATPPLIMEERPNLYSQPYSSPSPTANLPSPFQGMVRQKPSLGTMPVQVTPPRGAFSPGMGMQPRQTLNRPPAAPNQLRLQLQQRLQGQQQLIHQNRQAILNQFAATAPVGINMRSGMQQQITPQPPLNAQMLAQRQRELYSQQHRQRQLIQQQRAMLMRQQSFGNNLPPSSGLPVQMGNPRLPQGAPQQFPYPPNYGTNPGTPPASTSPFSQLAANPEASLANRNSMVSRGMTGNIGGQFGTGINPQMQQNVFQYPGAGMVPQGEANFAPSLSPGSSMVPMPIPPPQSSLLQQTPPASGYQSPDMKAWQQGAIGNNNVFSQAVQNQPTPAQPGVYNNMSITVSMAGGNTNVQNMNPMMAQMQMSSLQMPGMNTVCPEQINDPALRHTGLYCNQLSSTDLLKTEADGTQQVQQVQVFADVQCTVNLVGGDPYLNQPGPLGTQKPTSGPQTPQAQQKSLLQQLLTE

B1: VP16-rat VDR-LBD (domain or fragment, UniProt P13053 127-423, looked up)
chain: EQQHIIAILLDAHHKTYDPTYADFRDFRPPVRMDGSTGSYSPRPTLSFSGNSSSSSSDLYTTSLDMMEPSGFSNLDLNGEDSDDPSVTLDLSPLSMLPHLADLVSYSIQKVIGFAKMIPGFRDLTSDDQIVLLKSSAIEVIMLRSNQSFTMDDMSWDCGSQDYKYDVTDVSKAGHTLELIEPLIKFQVGLKKLNLHEEEHVLLMAICIVSPDRPGVQDAKLVEAIQDRLSNTLQTYIRCRHPPPGSHQLYAKMIQKLADLRSLNEEHSKQYRSLSFQPENSMKLTPLVLEVFGNEIS
fold induction of the two-hybrid signal by 1,25(OH)2D3, RWPE1 cells [1]: 111 fold
fold induction of the two-hybrid signal by 1,25(OH)2D3, RWPE2 cells [1]: 178 fold
fold induction of the two-hybrid signal by 1,25(OH)2D3, RWPE2 cells [2]: 10.4 fold

B2: VP16-mouse RXRα-LBD (domain or fragment, UniProt P28700 232-467, looked up)
chain: T1 sequence (looked up)
fold induction of the two-hybrid signal by 1,25(OH)2D3, RWPE1 cells [2]: 2.6 fold

B3: VP16-SRC-1 (natural protein)
chain: not shown
two-hybrid signal above the empty GAL4 vector control, RWPE1 cells [3]: 8.2 fold
